The test addresses SARS-CoV-2 RBD (SARS-CoV-2, reference (Wuhan-Hu-1) …, UniProt P0DTC2). In words: ELISA. On the technique in general: In an ELISA, binding on a coated surface is turned into a signal by an enzyme label.

B1: DH1047 IgG (antibody, V domains shown)
VH: QVQLVQSGAEVKKPGASVQVSCQASANTFTNHYIHWVRQAPGQGLEWMGIIYPTGGNTIYAQGFQGRVTMTRDTSLNTIYLELSSLRSEDTAVYYCARDVRVDDSWSGYDLLSGGTYFDYWGQGTLVTVSS
VL: not shown
As to B1, the binding result is given as “binds”.

The values are drawn from article PMC8095197 (bioRxiv, 2021).
